Source: PMC10916747, “Safety, biodistribution and radiation dosimetry of the Arg-Gly-Asp peptide ^99mTc-maraciclatide in healthy volunteers” (Nuclear Medicine Communications, 2024)
Numbered stars: 1 amine (or outer) side, 2 acyl side, 3 side chain; on linkers, the order of the positions; unused ones are H or OH. Bridge positions count the residues as written; N and C are the ends. Side chains are listed from the residue outwards. Peptide text beside a SMILES is read from it. * marks the point of attachment. X1 = C/C(=N\O)C(C)(C)NCCC(CCNC(C)(C)/C(C)=N/O)CCN*; Glutaryl = O=C(CCCC(=O)[*:2])[*:1]; X2 = NC(=O)COCC(=O)NCCOCCOCCOCCN*

How the values were obtained:
healthy volunteers [1] = test system: healthy volunteers; design: method as in PMID 17353156; settings: human urine, highest dose group (150 micrograms maraciclatide), reversed-phase LC ion-trap MS; cited from earlier work
healthy volunteers [2] = experiment: Phase 1 safety assessment (adverse events, vital signs, ECG, laboratory parameters)
Experimental: In 2003, a phase 1, placebo-controlled, observer-blinded, randomised, single ascending-dose study was performed. The study aimed to assess the safety of three intravenous levels of maraciclatide and the biodistribution and radiation dosimetry of ^99mTc-maraciclatide in healthy volunteers, assessing the potential of ^99mTc-maraciclatide as a radiopharmaceutical for diagnostic imaging.
Safety data on vital signs (heart rate, blood pressure, temperature, and oxygen saturation), electrocardiograms (ECG), laboratory parameters and physical examinations (general appearance, lung, abdominal, cardiovascular, and neurological exam by a qualified clinician) were measured prior to administration, and at multiple time points up to 7 days following administration. Based on clinical assessment, new abnormal or worsening clinical findings were defined as a change from the participant’s normal baseline to abnormal. All abnormal changes were recorded as adverse events (AEs).
Safety assessments were performed by an observer blinded to the administration of the placebo and ^99mTc-maraciclatide. A thorough review of safety data was performed before the decision was made to escalate to the higher dose in participants.

healthy volunteers [3] = experiment: clinical; design: species or system human; settings: in vivo, iv
Experimental: (§1) To calculate ^99mTc-maraciclatide ex-vivo activity, blood, plasma, urine, and faeces were collected at various time points after administration. Blood and plasma samples were collected at 10 min, 30 min, 1 h, 2 h, 4 h, 8 h, 24 h, 48 h, 72 h, and 7 days post-administration. Concentrations of maraciclatide in plasma were assayed using the LC-MS method (LOQ was 0.5 ng/ml). Urine was also collected at the same time points (if possible) up to 24 h post-administration. Faecal samples were collected as voided for up to 24 h post-administration. Assayed samples for ^99mTc-maraciclatide content were then measured using a gamma counter.
(§2) Concentrations of maraciclatide in plasma were assayed using the LC-MS method (LOQ was 0.5 ng/ml). The mean apparent terminal elimination half-life was approximately 1 h. Overall, systemic clearance was approximately 6.7 ml/min/kg, whilst the mean apparent volume of distribution was approximately 520 ml/kg. The majority of ^99mTc activity was excreted through the urinary pathway and GI tract, 55% and 16%, respectively.

clinical = experiment: clinical; design: species or system human; settings: human, in vivo, iv
Experimental: as §1, §2

integrin receptor αvβ3 = settings: background statement, no reference printed; cited from earlier work

C/C(=N\O)C(C)(C)NCCC(CCNC(=O)CCCC(=O)NCCCC[C@@H]1NC(=O)CSC[C@@H](C(=O)NCCOCCOCCOCCNC(=O)COCC(N)=O)NC(=O)[C@H](Cc2ccccc2)NC(=O)[C@@H]2CSSC[C@H](NC1=O)C(=O)N[C@@H](CCCNC(=N)N)C(=O)NCC(=O)N[C@@H](CC(=O)O)C(=O)N2)CCNC(C)(C)/C(C)=N/O (stereo partly shown) [Maraciclatide] ({CH2CO}-K([Glutaryl-X1])CRGDCFC-X2; disulfide 2-6; thioether N-8; N-terminus and C-terminus assumed)
metabolites in urine (healthy volunteers [1]): no metabolites were detected | species observed in urine samples (in-vivo stability) (healthy volunteers [1]): Only intact maraciclatide was observed | Abdominal pain: Cause of AE (healthy volunteers [2]; 15 μg maraciclatide (n = 8)): IMP | Blood phosphate decrease: No. with AEs (healthy volunteers [2]; 15 μg maraciclatide (n = 8)): 0 | Cardiac disorder: No. of AEs (healthy volunteers [2]; 15 μg maraciclatide (n = 8)): 0 | Cardiac disorder: No. with AEs (healthy volunteers [2]; 15 μg maraciclatide (n = 8)): 0 | Contact dermatitis: Cause of AE (healthy volunteers [2]; 15 μg maraciclatide (n = 8)): Procedural complication | Contact dermatitis: No. of AEs (healthy volunteers [2]; 15 μg maraciclatide (n = 8)): 1 | Contact dermatitis: No. with AEs (healthy volunteers [2]; 15 μg maraciclatide (n = 8)): 1 | Crystal urine present: No. of AEs (healthy volunteers [2]; 15 μg maraciclatide (n = 8)): 0 | Crystal urine present: No. with AEs (healthy volunteers [2]; 15 μg maraciclatide (n = 8)): 0 | Diarrhoea: Cause of AE (healthy volunteers [2]; 15 μg maraciclatide (n = 8)): IMP | Diarrhoea: No. of AEs (healthy volunteers [2]; 15 μg maraciclatide (n = 8)): 1 | Diarrhoea: No. with AEs (healthy volunteers [2]; 15 μg maraciclatide (n = 8)): 1 | Dizziness: Cause of AE (healthy volunteers [2]; 15 μg maraciclatide (n = 8)): IMP | Dizziness: No. of AEs (healthy volunteers [2]; 15 μg maraciclatide (n = 8)): 1 | Dizziness: No. with AEs (healthy volunteers [2]; 15 μg maraciclatide (n = 8)): 1 | ECG PR shortened: No. of AEs (healthy volunteers [2]; 15 μg maraciclatide (n = 8)): 0 | ECG PR shortened: No. with AEs (healthy volunteers [2]; 15 μg maraciclatide (n = 8)): 0 | ECG QRS complex prolonged: No. of AEs (healthy volunteers [2]; 15 μg maraciclatide (n = 8)): 0 | ECG QRS complex prolonged: No. with AEs (healthy volunteers [2]; 15 μg maraciclatide (n = 8)): 0 | Herpes simplex virus: No. with AEs (healthy volunteers [2]; 15 μg maraciclatide (n = 8)): 0 | Hyperkalaemia: No. of AEs (healthy volunteers [2]; 15 μg maraciclatide (n = 8)): 0 | Hyperkalaemia: No. with AEs (healthy volunteers [2]; 15 μg maraciclatide (n = 8)): 0 | Hypoaesthesia: Cause of AE (healthy volunteers [2]; 15 μg maraciclatide (n = 8)): IMP | Hypoaesthesia: No. of AEs (healthy volunteers [2]; 15 μg maraciclatide (n = 8)): 1 | Hypoaesthesia: No. with AEs (healthy volunteers [2]; 15 μg maraciclatide (n = 8)): 1 | Infection: No. of AEs (healthy volunteers [2]; 15 μg maraciclatide (n = 8)): 1 | Infection: No. with AEs (healthy volunteers [2]; 15 μg maraciclatide (n = 8)): 1 | Blood phosphate decrease: No. with AEs (healthy volunteers [2]; 75 μg maraciclatide (n = 8)): 1 | Cardiac disorder: No. of AEs (healthy volunteers [2]; 75 μg maraciclatide (n = 8)): 1 | Cardiac disorder: No. with AEs (healthy volunteers [2]; 75 μg maraciclatide (n = 8)): 1 | Crystal urine present: No. of AEs (healthy volunteers [2]; 75 μg maraciclatide (n = 8)): 0 | Crystal urine present: No. with AEs (healthy volunteers [2]; 75 μg maraciclatide (n = 8)): 0 | Dizziness: No. of AEs (healthy volunteers [2]; 75 μg maraciclatide (n = 8)): 0 | Dizziness: No. with AEs (healthy volunteers [2]; 75 μg maraciclatide (n = 8)): 0 | ECG PR shortened: No. of AEs (healthy volunteers [2]; 75 μg maraciclatide (n = 8)): 0 | ECG PR shortened: No. with AEs (healthy volunteers [2]; 75 μg maraciclatide (n = 8)): 0 | ECG QRS complex prolonged: Cause of AE (healthy volunteers [2]; 75 μg maraciclatide (n = 8)): Unrelated medical condition | ECG QRS complex prolonged: No. of AEs (healthy volunteers [2]; 75 μg maraciclatide (n = 8)): 1 | ECG QRS complex prolonged: No. with AEs (healthy volunteers [2]; 75 μg maraciclatide (n = 8)): 1 | Herpes simplex virus: No. with AEs (healthy volunteers [2]; 75 μg maraciclatide (n = 8)): 0 | Hyperkalaemia: No. of AEs (healthy volunteers [2]; 75 μg maraciclatide (n = 8)): 0 | Hyperkalaemia: No. with AEs (healthy volunteers [2]; 75 μg maraciclatide (n = 8)): 0 | Hypoaesthesia: No. of AEs (healthy volunteers [2]; 75 μg maraciclatide (n = 8)): 0 | Hypoaesthesia: No. with AEs (healthy volunteers [2]; 75 μg maraciclatide (n = 8)): 0 | Hyporeflexia: Cause of AE (healthy volunteers [2]; 75 μg maraciclatide (n = 8)): Other | Hyporeflexia: No. of AEs (healthy volunteers [2]; 75 μg maraciclatide (n = 8)): 1 | Hyporeflexia: No. with AEs (healthy volunteers [2]; 75 μg maraciclatide (n = 8)): 1 | Infection: No. of AEs (healthy volunteers [2]; 75 μg maraciclatide (n = 8)): 0 | Infection: No. with AEs (healthy volunteers [2]; 75 μg maraciclatide (n = 8)): 0 | Blood phosphate decrease: No. with AEs (healthy volunteers [2]; 150 μg maraciclatide (n = 8)): 0 | Cardiac disorder: No. of AEs (healthy volunteers [2]; 150 μg maraciclatide (n = 8)): 0 | Cardiac disorder: No. with AEs (healthy volunteers [2]; 150 μg maraciclatide (n = 8)): 0 | Crystal urine present: Cause of AEs (healthy volunteers [2]; 150 μg maraciclatide (n = 8)): IMP | Crystal urine present: No. of AEs (healthy volunteers [2]; 150 μg maraciclatide (n = 8)): 1 | Crystal urine present: No. with AEs (healthy volunteers [2]; 150 μg maraciclatide (n = 8)): 1 | Diarrhoea: No. of AEs (healthy volunteers [2]; 150 μg maraciclatide (n = 8)): 0 | Diarrhoea: No. with AEs (healthy volunteers [2]; 150 μg maraciclatide (n = 8)): 0 | Dizziness: No. of AEs (healthy volunteers [2]; 150 μg maraciclatide (n = 8)): 0 | Dizziness: No. with AEs (healthy volunteers [2]; 150 μg maraciclatide (n = 8)): 0 | ECG PR shortened: No. of AEs (healthy volunteers [2]; 150 μg maraciclatide (n = 8)): 0 | ECG PR shortened: No. with AEs (healthy volunteers [2]; 150 μg maraciclatide (n = 8)): 0 | ECG QRS complex prolonged: No. of AEs (healthy volunteers [2]; 150 μg maraciclatide (n = 8)): 0 | ECG QRS complex prolonged: No. with AEs (healthy volunteers [2]; 150 μg maraciclatide (n = 8)): 0 | Herpes simplex virus: No. with AEs (healthy volunteers [2]; 150 μg maraciclatide (n = 8)): 1 | Hyperkalaemia: Cause of AEs (healthy volunteers [2]; 150 μg maraciclatide (n = 8)): Procedural complication | Hyperkalaemia: No. of AEs (healthy volunteers [2]; 150 μg maraciclatide (n = 8)): 1 | Hyperkalaemia: No. with AEs (healthy volunteers [2]; 150 μg maraciclatide (n = 8)): 1 | Hypoaesthesia: No. of AEs (healthy volunteers [2]; 150 μg maraciclatide (n = 8)): 0 | Hypoaesthesia: No. with AEs (healthy volunteers [2]; 150 μg maraciclatide (n = 8)): 0 | Hyporeflexia: No. of AEs (healthy volunteers [2]; 150 μg maraciclatide (n = 8)): 0 | Hyporeflexia: No. with AEs (healthy volunteers [2]; 150 μg maraciclatide (n = 8)): 0 | Infection: No. of AEs (healthy volunteers [2]; 150 μg maraciclatide (n = 8)): 1 | Infection: No. with AEs (healthy volunteers [2]; 150 μg maraciclatide (n = 8)): 1 | AEs deemed related to maraciclatide (number) (healthy volunteers [2]; in vivo): 7 | AEs deemed related to maraciclatide (percent) (healthy volunteers [2]; in vivo): 23% | plasma concentration time course (healthy volunteers [3]): bi-exponential decline | Vd (clinical): ~0.52 L/kg | clearance (clinical): ~6.7 mL/min/kg | half-life (clinical): ~1 h | affinity to αvβ3 (integrin receptor αvβ3): nanomolar affinity
